Paper PMC3871639

Molecular target: T1, Stat5 (mouse liver nuclear extract, identified by WEMSA immunoblot) (mouse) (UniProt P42232)
T1 sequence: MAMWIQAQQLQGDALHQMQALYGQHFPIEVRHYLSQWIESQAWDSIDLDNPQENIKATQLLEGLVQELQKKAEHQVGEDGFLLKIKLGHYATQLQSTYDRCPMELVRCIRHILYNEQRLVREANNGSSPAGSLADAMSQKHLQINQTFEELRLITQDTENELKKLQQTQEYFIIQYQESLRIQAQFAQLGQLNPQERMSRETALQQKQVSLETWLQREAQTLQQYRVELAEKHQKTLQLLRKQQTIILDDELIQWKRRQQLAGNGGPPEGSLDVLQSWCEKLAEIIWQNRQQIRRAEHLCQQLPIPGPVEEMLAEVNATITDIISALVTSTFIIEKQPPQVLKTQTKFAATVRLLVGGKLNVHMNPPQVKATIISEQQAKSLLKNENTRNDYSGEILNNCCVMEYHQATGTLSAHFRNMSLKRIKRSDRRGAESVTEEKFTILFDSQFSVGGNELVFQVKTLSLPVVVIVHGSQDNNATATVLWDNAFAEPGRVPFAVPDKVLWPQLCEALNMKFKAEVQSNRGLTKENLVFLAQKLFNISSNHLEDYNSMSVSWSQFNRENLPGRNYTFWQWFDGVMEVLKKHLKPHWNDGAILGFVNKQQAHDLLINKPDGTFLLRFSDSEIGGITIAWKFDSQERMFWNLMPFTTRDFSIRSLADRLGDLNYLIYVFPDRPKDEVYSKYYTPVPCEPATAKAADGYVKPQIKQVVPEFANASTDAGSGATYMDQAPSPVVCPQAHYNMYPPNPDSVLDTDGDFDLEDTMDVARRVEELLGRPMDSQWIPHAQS
Assay: EMSA + immunoblot of shifted complex (WEMSA)
Settings: Li-Cor EMSA buffer kit: 1x binding buffer, poly(dI-dC) 1 ug/uL (in 10 mM Tris, 1 mM EDTA, pH 7.5), 25 mM DTT/2.5% Tween-20, 1% NP-40, 100 mM MgCl2 (as listed …)

Sequence: GTAATTCCTAGATTCATGGAAGAG (double strand) [Stat5 element probe of mouse Tmprss6 promoter]
- binding signal (% of baseline shift (decreased by 60%)): 40
